Patent publication US20040009905A1 (B M R A CORPORATION B V, published 2004)

Biological target: T1, NPY Y1 receptor (human, UniProt P25929 1-384)
T1 construct: whole, on cells; SK-N-MC cells are said to express the NPY Y1 receptor exclusively; also called SK-N-MC cells
T1 sequence (looked up): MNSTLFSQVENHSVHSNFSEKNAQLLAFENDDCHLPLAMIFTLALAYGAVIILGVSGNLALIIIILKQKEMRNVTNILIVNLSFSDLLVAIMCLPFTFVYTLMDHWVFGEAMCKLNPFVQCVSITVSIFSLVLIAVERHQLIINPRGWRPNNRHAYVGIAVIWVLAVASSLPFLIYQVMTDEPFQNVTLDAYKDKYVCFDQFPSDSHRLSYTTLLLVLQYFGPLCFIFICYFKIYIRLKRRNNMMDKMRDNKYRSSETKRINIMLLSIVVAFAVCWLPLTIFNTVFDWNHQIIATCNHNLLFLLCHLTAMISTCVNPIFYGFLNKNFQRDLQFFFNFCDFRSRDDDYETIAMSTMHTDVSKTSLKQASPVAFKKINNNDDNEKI
Experiment: 125I-NPY displacement on SK-N-MC cells
Method: Various peptide dilutions were incubated with SK-N-MC cells that exclusively express Y1 receptors. Cells were then washed three times with buffer and lysed in 1% Nonidet P40 (Fluka, Neu-Ulm, Germany), 8M urea, 3M acetic acid. […] At the end of the incubation period, cells were washed and lysed. Bound radioactivity was determined by gamma counting. […] Each point represents the mean ± of at least 4 experiments.

binding result: binds
B1: Neuropeptide Y (NPY) (peptide)
peptide: not shown
modifications: C-terminal tyrosine amidated
notes: also called native NPY; Human NPY 1-36
